According to the supplement of paper PMC9170038:

Tested on: MS2 coat protein
Assay: apparent KD of MS2 coat protein; designed switch direction (-1 OFF switch, 1 ON switch): -1; higher = weaker reporter binding
Procedure, shortened: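 SNAP-549-labelled MS2 coat protein was titrated, doubling from 0.7 or 1.5 nM to 3 µM, over designed RNA switches transcribed on Illumina chips by stalled E. coli RNA polymerase. Runs were done without input, with 200 uM small-molecule ligand, or with an oligonucleotide input. Apparent KD is the per-design median over clusters of curve-fitted normalised fluorescence.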

[1] = Eterna round: R95, input ligand: microRNA oligo, concentration not stated
[2] = input ligand: microRNA oligo, concentration not stated
[3] = Eterna round: R95, input ligand: FMN 200 uM
[4] = Eterna round: R95, input ligand: none

Row | Sequence | apparent KD of MS2 coat protein (input ligand: FMN 200 uM) [nM] | apparent KD of MS2 coat protein (input ligand: none) [nM] | apparent KD of MS2 coat protein [1] [nM] | apparent KD of MS2 coat protein [2] [nM] | apparent KD of MS2 coat protein [3] [nM] | apparent KD of MS2 coat protein [4] [nM]
1 | GAAAACGCAGAGGAUAUUUCAGAUCAAAGCUGCAAAGAAGGCUGCACAUGAGGAUCACCCAUGUGGUCUUUAAA [Mod of Quesina - Jieux - Exclusion 6] (Eterna round: R97, puzzle: Exclusion 6) | 286 | 20.7 |  |  |  | 
2 | CUAGUAUAUCAGGAUAUGAUUUUAUAUAGUUGGUCAGAAGGGAUGACAUGAGGAUCACCCAUGUUAAGGAGUGA [JR_Ex6_Sub043] (Eterna round: R97, puzzle: Exclusion 6) | 143 | 118 |  |  |  | 
3 | CUCUUGUUAGGAUAUCAAACCAGUGACGGAACCACUGGAAGUGAGAAGGGACAUGAGGAUCACCCAUGUAAGAA [Edraate] (puzzle: Exclusion 4) |  |  | 52.3 |  |  | 
4 | CUUCGUUGUAAGGAUAUCCAGACUCUUCCUGUCGGAGAAGGUACAACAUGAGGAUCACCCAUGUUGCUACAUGG [Zaaqu] (puzzle: Exclusion 6) |  |  | 21.6 |  |  | 
5 | UACAUGAGGAUCACCCAUGUUUUGUCGUGUAUGGUAUUUAUCUAGGAUAUCAAGUUAAUUAUUUAUGAGAAGGAGAAUAUUAAU [JMF's solution 28] (Eterna round: R96, puzzle: Exclusion NG 3) | 37 | 39 |  | 31.7 |  | 
6 | CAGUACUGAGGAUAUACAUGAGGAUCACCCAUGUGCUCUAGCUAGGAUACUAGCAUUAGUAGAAGGCAGUACUG [Fiskers Ex 3 828 mod 8] (Eterna round: R96, puzzle: Exclusion 3) | 132 | 19.7 |  | 14.4 |  | 
7 | UAAACAAGCGAAAGAUCCCACAUGAGGAUCACCCAUGUGCUCGUCUUAUAAGGUACUGUGACGAAAGUCACGGUACC [Sensor 3, v1 - 91 v19] (Eterna round: R97, puzzle: Sensor, turn-off variant 1) | 37.9 | 41 |  |  |  | 
8 | AAAUGCAGGUAAAGAUUCUACAUGAGGAUCACCCAUGUGCUCGUCUUAUAAAGUACUAUCACGAAAGUGAUAGUACA [Sensor 3, v1 - 41] (puzzle: Sensor v3, turn-off variant 1) |  |  | 268 |  | 27.6 | 26.6
9 | ACUGGUCGAGGAUAUAUAUGACGUGCUUCGGCACGAAGAUCACAUGAGGAUCACCCAUGUAGAAGGCGACCAGU [E2/8-A2] (Eterna round: R97, puzzle: Exclusion 2) | 731 | 130 |  |  |  | 
10 | CAGGACAGAGGAUAUACAUAGAUACAGAUUCAUGUAGAACUACAUGAGGAUCACCCAUGUAGAAGGCUGUCCUG [Fiskers Ex 2 - 3] (puzzle: Exclusion 2) |  |  | 27.8 |  |  | 
11 | GAGUAGUAAGGAUAUAGUAGGAGGGAGAAGAGAGGAGAGAACUAGAAGGUACAUGAGGAUCACCCAUGUUGAGA [JR_Exclu4_Sub083] (puzzle: Exclusion 4) |  |  | 17 |  | 18.5 | 20.4
12 | UUUCCGGCGCGGGUUUUUUACAUGAGGAUCACCCAUGUCCUCUGCUUGUCUUGUCUUGGGCUUUUUUUGGGUUCGGG [-19, -39.7 kcal, A 8%] (Eterna round: R97, puzzle: Sensor, turn-off variant 1) | 697 |  |  |  |  | 
13 | GAUUAUGCGAGCUUUAGGGACAUGAGGAUCACCCAUGUUCGUCUUAUUGGUCUAGGUGCGCUAACAUACCUAAAUCU [JMF 51] (puzzle: Sensor v3, turn-off variant 1) |  |  | 34.8 |  | 21.9 | 25.4
14 | GUAAACGAAGAGGAUAUUUGAUAUCAAAGCUUCAAAGAAGGCUUCACAUGAGGAUCACCCAUGUGAUCUUCAAA [Mat - Exclusion 6 - JL Mod - D18] (Eterna round: R97, puzzle: Exclusion 6) | 191 | 23.3 |  |  |  | 
15 | CUGAGCAGACGAAGAUCCAACAUGAGGAUCACCCAUGUCUCAAAAGCUUUUUGCUCGUCUUAUCCUUCUCUGUUCUC [Reisedzaqu] (puzzle: Sensor v3, turn-off variant 1) |  |  | 176 |  | 16 | 13
16 | AGCUGUGGCCGAGGAUAUCUAUCCAAUAUAACCGAAAUAUAAUCGGACAUGAGGAUCACCCAUGUAGAGAAGGCGGUCUCAGCA [Eli eng2 - 093] (Eterna round: R96, puzzle: Exclusion NG 2) |  |  |  | 15.3 |  | 
17 | AGAAGACAUGAGGAUCACCCAUGUAAGGAUAUCGGAGGUAAGGGAGGAAGGAGAUAGGCGAGAAGGUACAGGUG [JR_Exclu1_Sub093] (puzzle: Exclusion 1) |  |  | 53.1 |  | 39 | 51.7
18 | ACGCAUUGCCUUUGGUAGUGCGUUACAUGAGGAUCACCCAUGUAGGAUAUGGUAGGCAAAGCUUACCAGAAGGACAUGAUAAUU [Mat - Exclusion NG 3 - Mod of JL - D5] (Eterna round: R96, puzzle: Exclusion NG 3) |  |  |  | 41.8 |  | 

Row | Sequence | apparent KD of MS2 coat protein (input ligand: FMN 200 uM) [nM] | apparent KD of MS2 coat protein (input ligand: none) [nM] | apparent KD of MS2 coat protein [1] [nM] | apparent KD of MS2 coat protein [2] [nM] | apparent KD of MS2 coat protein [3] [nM] | apparent KD of MS2 coat protein [4] [nM]
19 | AGAUGUAGAUACCGAUCCUACAUGAGGAUCACCCAUGUAGCAAGACGUGCACGCGAAGCUCGUCAGACUACCAGAAG [salish99_TOv1_r3_083] (puzzle: Sensor v3, turn-off variant 1) |  |  | 99.7 |  | 114 | 137
20 | UAUUAGCAAGUAAGAUCCCACAUGAGGAUCACCCAUGUGCUCGUCUUAUAAGGUACUGUGACGAAAGUCACGGUACC [Sensor 3, v1 - 88] (Eterna round: R96, puzzle: Sensor v3, turn-off variant 1) | 16.7 | 18.1 |  | 313 |  | 
21 | GCCGCUGUAGGAUAUGCCAGGGUGGCAGCUUGAUGUGUGGCACAUGAGGAUCACCCAUGUAGAAGGACAGAAAG [Isvelera] (puzzle: Exclusion 2) |  |  | 17.1 |  |  | 
22 | UCAAGUAUGUAGGAUAUGAUGUGAUUGUACAUAUCAGAAGGACGUACAUGAGGAUCACCCAUGUAACUUGCAUG [Exclusion 6 - B - 12:b] (puzzle: Exclusion 6) |  |  | 144 |  | 43.1 | 144
23 | AACAAGCUAGGAUAUACAUGAGGAUCACCCAUGUGCGACUGAUGUCCCGUGGUUGAGGGUAGAAGGAGCGAAAG [Qucelexe] (puzzle: Exclusion 3) |  |  | 210 |  | 239 | 226
24 | AAAAAGGCAGGAUAUGCAUACACACAAAAAAAAAAACUGGGACAUGAGGAUCACCCAUGUAGAAGGGCCAAAAA [Dora Explored 8 - Jieux - Exclusion 2] (Eterna round: R96, puzzle: Exclusion 2) | 60.1 | 54.1 |  | 53.7 |  | 
25 | CAGCUGAAAGUGAGGAUAUCUAGAGCCUCGGCUCUAGAGAAGGCACAUGAGGAUCACCCAUGUGAUCACAGCUG [BmEx4/7-A2] (Eterna round: R97, puzzle: Brourd's mod of Exclusion 4) | 1320 | 307 |  |  |  | 
26 | AAUAAUAGCGAGGAUAUCGUAUCGGAAACGAUACGAGAAGGCGUAACAUGAGGAUCACCCAUGUGUCCUCAAAA [Mat - Exclusion 6 - Eli Mod - D7] (Eterna round: R97, puzzle: Exclusion 6) | 2520 | 146 |  |  |  | 
27 | AAUUAUUAUUGAGGAUAUCGUAUUGAAAUAAUAUGAGAAGGCGGGAUAAACAUGAGGAUCACCCAUGUGAGCCUGAUGCUUGUG [Ex NG1 #39] (Eterna round: R96, puzzle: Exclusion NG 1) |  |  |  | 13.3 |  | 
28 | UUUAAUUUUUUUUUUUUACAAGCUUUUUGCUCGUCUUAUACAUGAGGAUCACCCAUGUGGGUAGAAGGUAAAUUAUC [JMF 66] (puzzle: Sensor v3, turn-off variant 2) |  |  | 64.9 |  | 24.3 | 22.4
29 | AAACCUGGAGUUAGGAUAUGAAGUAUCACUGCGCUUCAGAAGGGACUUGAGGAUCACCCAAGUAAAAGUUAAAA [Teredi] (Eterna round: R97, puzzle: Brourd's mod of Exclusion 4) | 20.8 | 18.5 |  |  |  | 
30 | ACUCAACAGUAGGAUAUCAUCAAACUAUUGUGAUGAGAAGGACUGACAUGAGGAUCACCCAUGUUAACGUGAUG [Mod of Brourd 2 - Jieux - Exclusion 6] (Eterna round: R97, puzzle: Exclusion 6) | 32.1 | 21.5 |  |  |  | 
31 | UUUUGAUGAGGAUAUCGAGGUUAGUACAUGAGGAUCACCCAUGUUAUCCAGGUGUCGGUUCGAGAAGGUAUUGGAC [LRO-Ex5-16] (puzzle: Exclusion 5) |  |  | 16 |  |  | 
32 | AAUACAAGCUAUUGAUCCCACAUGAGGAUCACCCAUGUAUAUGGCGGUGACACCUCCAUGACGAUAGCUCGUCUUAU [Sensor-V1 #58] (Eterna round: R97, puzzle: Sensor, turn-off variant 1) | 567 | 1360 |  |  |  | 
33 | ACAAGCUUAAUCUGUAUGAACAUGAGGAUCACCCAUGUAAAAGGGAAUACUUUUGGGUUUUUUAUAGCUCGUCUUAU [JR_STOV1_Sub019] (Eterna round: R97, puzzle: Sensor, turn-off variant 1) | 52 | 49.5 |  |  |  | 
34 | AAUUAGCAAGCGAGAUCUCACAUGAGGAUCACCCAUGUGCUCGUCUUAUAAGGUACUGUGACGAUAGUCACGGUACC [Mat - Sensor, turn-off var - Eli Mod - D39] (Eterna round: R97, puzzle: Sensor, turn-off variant 1) | 13.2 | 14.8 |  |  |  | 
35 | UGCGUACAUGAGGAUCACCCAUGUGAGGAUAUUUGGCAUCGCGAGUGCCCAAGGAGAUAGAGAAGGCAUAUGGA [Eternabot (L1) Solution 50] (Eterna round: R97, puzzle: Exclusion 1) | 34.3 | 37.2 |  |  |  | 
